This is an account of results in patent US20250154265A1 (BEIGENE, published 2025).

Holding throughout (experiment): cell-based or functional assay
Experiment [1] has as its target T1, human cMET on cells (Hs746T, H596, EBC-1) (human, UniProt P08581 25-1390).
Experiment [2] addresses T1, human cMET on cells (Hs746T, H596, …). This is another data set of the same source.
Experiment [3] shares this target. This is another data set of the same source.

T1 sequence (P08581 25-1390 limits assumed): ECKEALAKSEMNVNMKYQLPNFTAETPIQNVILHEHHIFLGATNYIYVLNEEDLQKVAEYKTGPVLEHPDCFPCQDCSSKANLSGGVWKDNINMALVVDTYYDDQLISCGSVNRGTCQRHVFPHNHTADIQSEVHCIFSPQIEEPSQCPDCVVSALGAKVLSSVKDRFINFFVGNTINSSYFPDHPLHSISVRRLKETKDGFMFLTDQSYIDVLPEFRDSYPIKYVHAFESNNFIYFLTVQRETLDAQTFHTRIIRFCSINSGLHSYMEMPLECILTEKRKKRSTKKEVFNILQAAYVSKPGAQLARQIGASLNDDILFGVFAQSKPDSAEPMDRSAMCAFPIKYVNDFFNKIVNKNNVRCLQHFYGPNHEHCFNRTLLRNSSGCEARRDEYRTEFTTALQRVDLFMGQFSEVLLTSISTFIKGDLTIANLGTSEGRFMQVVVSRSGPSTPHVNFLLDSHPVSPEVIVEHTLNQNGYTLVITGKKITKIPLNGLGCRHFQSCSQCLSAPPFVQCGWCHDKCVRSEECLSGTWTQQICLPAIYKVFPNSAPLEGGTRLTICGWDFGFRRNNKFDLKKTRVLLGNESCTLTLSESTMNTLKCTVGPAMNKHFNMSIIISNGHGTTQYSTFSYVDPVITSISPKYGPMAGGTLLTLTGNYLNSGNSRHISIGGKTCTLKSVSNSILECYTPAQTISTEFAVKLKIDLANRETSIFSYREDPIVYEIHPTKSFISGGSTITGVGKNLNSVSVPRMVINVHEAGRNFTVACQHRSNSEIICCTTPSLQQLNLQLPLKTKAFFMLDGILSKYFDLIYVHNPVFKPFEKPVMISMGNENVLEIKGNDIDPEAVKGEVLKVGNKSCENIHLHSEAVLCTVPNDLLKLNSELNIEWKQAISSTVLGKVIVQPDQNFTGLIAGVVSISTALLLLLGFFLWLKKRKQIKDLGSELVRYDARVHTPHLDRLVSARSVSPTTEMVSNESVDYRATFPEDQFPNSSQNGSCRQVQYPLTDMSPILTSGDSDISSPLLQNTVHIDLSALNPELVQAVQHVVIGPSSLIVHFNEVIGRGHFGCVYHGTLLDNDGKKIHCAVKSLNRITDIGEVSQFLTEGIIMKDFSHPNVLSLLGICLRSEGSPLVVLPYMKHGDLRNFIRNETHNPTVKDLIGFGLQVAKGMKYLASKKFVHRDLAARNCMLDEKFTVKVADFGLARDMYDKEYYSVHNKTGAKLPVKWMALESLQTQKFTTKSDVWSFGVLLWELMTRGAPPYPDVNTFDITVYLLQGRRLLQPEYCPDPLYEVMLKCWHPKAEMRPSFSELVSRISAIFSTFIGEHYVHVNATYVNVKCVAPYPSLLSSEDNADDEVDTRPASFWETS

B1: 063Ab07710 (antibody, human IgG1, kappa, V domains shown)
VH: QVQLVESGGGVVQPGRSLRLSCAASGFTFSSYGMHWVRQAPGKGLEWVAVISNDGSYKYYVDSVTGRFTISRDNSKNTLYLQMNSLRAEDTAVYYCAKDRNMGYSGWFDYWGQGSLVTVSS
VL: not shown
For B1, the “IC50, inhibition of HGF-induced ERK phospho-T202/Y204 in H596 cells” value in experiment [1] was more than 250000 pM.

B2: 06BS02 (bispecific antibody, V domains shown)
VH 1: QVQLVESGGGVVQPGRSLRLSCAASGFTFSSHGMHWVRQAPGKGLEWVAVISYDESDKYYADSVKGRFTISRDHSKNTLYLQMNSLRAEDTAVYYCVKDRNMGYSGWLDYWGQGTLVTVSS
VH 2: QFQLQESGPGLVKPSETLSLTCTVSGGSISTSSYYWGWIRQPPGKGLEWIGTIYFSGTTYYNPSLTSRVSMSVDTSKNQFSLKLNSVTAADTSIYYCARHWPKYNSWFDPWGQGFLVTVSS
VL: not shown
B2: in experiment [2], the “Imax %, inhibition of HGF-induced ERK phospho-T202/Y204 in H596 cells” value amounted to 90%.

B3: 06BS03 (bispecific antibody, V domains shown)
VH 1: QVQLVESGGGVVQPGKSLRLSCAASGFTFSSSGLHWVRQAPGKGLEWVAVISYDTSNKYYADSVKGRFTISRDNSKNTLYLQMNSLRAEDTAVYYCAKDLNRGYDWGFDYWGQGTLVTVSS
VH 2: QFQLQESGPGLVKPSETLSLTCTVSGGSISTSSYYWGWIRQPPGKGLEWIGTIYYSGTTYYNPSLKSRVTISVDTSKNQFSLKLKSVTAADTSIYYCARHWPKYNSWFDPWGQGILVTVSS
VL: not shown
As for B3, the “IC50, inhibition of ERK phospho-T202/Y204 in Hs746T cells” value in experiment [3] was found to be 500 pM.
